B1: HB27 (humanized monoclonal antibody, IgG) (antibody, V domains shown)
VH: VKLVESGGGLVKPGGSLRLSCAASGFTFTNYGMSWVRQAPGKRLEWVAEISSGGSYTYYPDTVTGRFTISRDNAKNTLYLQMNSLRAEDTAVYYCARFRYGGGGTVDYWGQGTLVTVSS
VL: IVLTQSPTLSLSPGERATLSCRASESVDNYGISFMNWFQQKPGQAPRLLIYAASNQGSGIPSRFSGSGSGTDFSLTISSLEPEDFAVYFCQQSKEVPRIFGQGTKVEIL
notes: also called HB27 IgG; source: CHO cell line
B2: HB27 Fab fragment (Fab, V domains shown)
VH: B1 VH
VL: B1 VL

Tests used:
Conditions in all cases: both partners purified
[1] = target: T1, SARS-CoV-2 RBD (recombinant receptor binding domain of the S glycoprotein) (SARS-CoV-2, UniProt P0DTC2); assay: cell-based immunofluorescent blocking assay
[2] = target: T1, SARS-CoV-2 RBD (recombinant receptor …); assay: ELISA
[3] = target: T1, SARS-CoV-2 RBD (recombinant receptor …); assay: BLI

| Binder | EC50 [1] | EC50 [2] | Kd [3] |
| --- | --- | --- | --- |
| B1 | 5 to 50 nM | 0.5 nM | 0.07 nM |
| B2 |  |  | 0.27 nM |

Source: publication PMC7798916 (National Science Review, 2020)
